Measured values published in IntAct's records for PubMed 25910212.
One block for each substance: values may come before it.

Tests used:
cof2_human CFL2 = cof2_human CFL2 (UniProt Q9Y281)
cap2_human CAP2 [1] = target: cap2_human CAP2 (UniProt P40123)
cap2_human CAP2 [2] = target: cap2_human CAP2 (UniProt P40123); remark: listed apart in the source
pnma1_human PNMA1 = pnma1_human PNMA1 (UniProt Q8ND90)
mdfi_human MDFI = mdfi_human MDFI (UniProt Q99750)
lzts2_human LZTS2 = lzts2_human LZTS2 (UniProt Q9BRK4)
Chain of lzts2_human LZTS2 (Q9BRK4 whole entry): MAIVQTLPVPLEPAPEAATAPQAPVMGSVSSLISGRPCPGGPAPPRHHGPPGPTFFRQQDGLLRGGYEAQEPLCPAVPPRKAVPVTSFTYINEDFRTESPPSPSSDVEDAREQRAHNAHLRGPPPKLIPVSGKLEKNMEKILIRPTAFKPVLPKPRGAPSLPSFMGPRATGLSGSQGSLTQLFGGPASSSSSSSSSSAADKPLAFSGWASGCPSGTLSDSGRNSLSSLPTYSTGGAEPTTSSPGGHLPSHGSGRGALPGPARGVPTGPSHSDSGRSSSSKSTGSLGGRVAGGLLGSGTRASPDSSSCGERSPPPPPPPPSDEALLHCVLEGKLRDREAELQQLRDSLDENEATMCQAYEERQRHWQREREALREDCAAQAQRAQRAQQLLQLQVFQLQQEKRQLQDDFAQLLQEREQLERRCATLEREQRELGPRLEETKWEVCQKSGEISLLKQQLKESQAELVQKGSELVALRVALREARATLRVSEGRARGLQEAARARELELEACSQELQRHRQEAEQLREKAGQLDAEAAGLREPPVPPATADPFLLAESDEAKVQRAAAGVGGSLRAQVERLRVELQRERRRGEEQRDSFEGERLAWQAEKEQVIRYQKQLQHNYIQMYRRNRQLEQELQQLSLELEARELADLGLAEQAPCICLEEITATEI

kra32_human KRTAP3-2 = kra32_human KRTAP3-2 (UniProt Q9BYR7)
Chain of kra32_human KRTAP3-2 (Q9BYR7 whole entry): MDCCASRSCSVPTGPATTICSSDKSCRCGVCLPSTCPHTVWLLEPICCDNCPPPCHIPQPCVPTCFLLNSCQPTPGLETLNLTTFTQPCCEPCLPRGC

trip6_human TRIP6 = trip6_human TRIP6 (UniProt Q15654)
Chain of trip6_human TRIP6 (Q15654 whole entry): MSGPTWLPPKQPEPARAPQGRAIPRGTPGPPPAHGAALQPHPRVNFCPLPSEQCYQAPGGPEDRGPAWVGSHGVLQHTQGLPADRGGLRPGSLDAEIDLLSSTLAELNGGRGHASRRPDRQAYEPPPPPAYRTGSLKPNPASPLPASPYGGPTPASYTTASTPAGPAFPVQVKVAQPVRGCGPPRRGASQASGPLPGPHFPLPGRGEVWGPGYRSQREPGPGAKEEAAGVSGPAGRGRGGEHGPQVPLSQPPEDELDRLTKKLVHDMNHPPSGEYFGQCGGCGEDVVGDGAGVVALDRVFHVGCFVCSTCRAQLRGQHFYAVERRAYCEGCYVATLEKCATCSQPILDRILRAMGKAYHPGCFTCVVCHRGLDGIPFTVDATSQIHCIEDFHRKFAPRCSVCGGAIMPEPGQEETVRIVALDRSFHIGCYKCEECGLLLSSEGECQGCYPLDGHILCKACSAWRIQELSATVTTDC

SYNE4, Q8N205-2 = target: T1, SYNE4, Q8N205-2
T1 sequence: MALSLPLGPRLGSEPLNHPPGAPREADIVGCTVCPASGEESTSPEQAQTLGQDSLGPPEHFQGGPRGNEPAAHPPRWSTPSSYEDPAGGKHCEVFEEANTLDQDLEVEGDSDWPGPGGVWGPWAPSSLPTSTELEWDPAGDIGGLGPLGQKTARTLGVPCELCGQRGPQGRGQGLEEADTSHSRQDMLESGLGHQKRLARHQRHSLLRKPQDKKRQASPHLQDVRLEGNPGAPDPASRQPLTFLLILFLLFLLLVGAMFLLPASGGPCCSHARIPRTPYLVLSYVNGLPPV

smim3_human SMIM3 [3] = target: T2, smim3_human SMIM3 (UniProt Q9BZL3)
T2 sequence: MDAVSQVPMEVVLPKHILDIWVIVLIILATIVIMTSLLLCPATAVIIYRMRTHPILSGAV

smim3_human SMIM3 [4] = target: T2, smim3_human SMIM3; remark: listed apart in the source
tmm79_human TMEM79 = target: T3, tmm79_human TMEM79 (UniProt Q9BSE2)
T3 sequence: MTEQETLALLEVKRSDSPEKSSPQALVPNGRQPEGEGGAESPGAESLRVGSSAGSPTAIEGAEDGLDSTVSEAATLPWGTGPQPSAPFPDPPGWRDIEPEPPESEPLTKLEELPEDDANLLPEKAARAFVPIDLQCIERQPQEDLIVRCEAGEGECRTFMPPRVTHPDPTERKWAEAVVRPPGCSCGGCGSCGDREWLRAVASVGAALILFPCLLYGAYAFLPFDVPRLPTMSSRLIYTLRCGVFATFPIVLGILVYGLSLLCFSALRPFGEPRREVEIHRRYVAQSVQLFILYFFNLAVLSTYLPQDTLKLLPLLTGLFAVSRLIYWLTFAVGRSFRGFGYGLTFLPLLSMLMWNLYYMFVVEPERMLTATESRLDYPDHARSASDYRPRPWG

gsto2_human GSTO2 = gsto2_human GSTO2 (UniProt Q9H4Y5)
Chain of gsto2_human GSTO2 (Q9H4Y5 whole entry): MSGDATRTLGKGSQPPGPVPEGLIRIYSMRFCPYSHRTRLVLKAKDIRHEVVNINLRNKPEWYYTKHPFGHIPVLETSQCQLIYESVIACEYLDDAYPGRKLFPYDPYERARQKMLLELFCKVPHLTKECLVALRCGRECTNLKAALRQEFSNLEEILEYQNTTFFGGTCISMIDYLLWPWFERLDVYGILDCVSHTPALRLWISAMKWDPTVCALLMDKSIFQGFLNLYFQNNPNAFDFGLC

Chain of pnma1_human PNMA1 (Q8ND90 whole entry): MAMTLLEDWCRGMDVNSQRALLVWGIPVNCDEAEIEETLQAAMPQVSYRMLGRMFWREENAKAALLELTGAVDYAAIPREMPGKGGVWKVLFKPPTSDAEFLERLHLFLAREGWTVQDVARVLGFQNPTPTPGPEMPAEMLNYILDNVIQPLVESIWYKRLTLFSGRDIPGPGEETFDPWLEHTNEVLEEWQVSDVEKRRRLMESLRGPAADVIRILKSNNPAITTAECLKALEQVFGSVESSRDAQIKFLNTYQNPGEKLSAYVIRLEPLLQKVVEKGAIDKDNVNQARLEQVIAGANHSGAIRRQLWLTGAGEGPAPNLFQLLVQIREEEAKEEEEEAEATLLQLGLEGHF
Chain of Erythroid transcription factor (Homo sapiens), P15976-2 D218G (P15976 other isoform, or with tags, fused parts or gaps D218G): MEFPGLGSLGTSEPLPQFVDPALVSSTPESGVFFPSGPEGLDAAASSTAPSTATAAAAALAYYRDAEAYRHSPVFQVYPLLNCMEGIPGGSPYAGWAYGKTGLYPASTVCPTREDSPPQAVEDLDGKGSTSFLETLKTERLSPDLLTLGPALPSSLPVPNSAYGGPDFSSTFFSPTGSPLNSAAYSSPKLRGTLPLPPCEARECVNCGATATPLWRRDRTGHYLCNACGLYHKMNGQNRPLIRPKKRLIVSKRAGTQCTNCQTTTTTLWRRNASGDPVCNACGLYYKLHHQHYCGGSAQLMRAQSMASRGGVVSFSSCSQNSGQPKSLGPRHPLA
Chain of Erythroid transcription factor (Homo sapiens), P15976-2 V205M (P15976 other isoform, or with tags, fused parts or gaps V205M): as the sequence (P15976 other isoform, or with tags, fused parts or gaps D218G) above
Chain of Erythroid transcription factor (Homo sapiens), P15976-2 G208R (P15976 other isoform, or with tags, fused parts or gaps G208R): as the sequence (P15976 other isoform, or with tags, fused parts or gaps D218G) above
Chain of mdfi_human MDFI (Q99750 whole entry): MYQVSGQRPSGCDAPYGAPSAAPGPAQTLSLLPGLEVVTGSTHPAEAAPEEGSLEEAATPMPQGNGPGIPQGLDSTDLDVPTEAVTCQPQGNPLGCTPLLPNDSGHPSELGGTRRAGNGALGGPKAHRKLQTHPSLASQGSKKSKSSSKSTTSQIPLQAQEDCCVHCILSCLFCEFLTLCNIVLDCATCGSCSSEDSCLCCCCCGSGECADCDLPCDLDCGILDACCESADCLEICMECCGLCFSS
Chain of UBQLN1, Q9UMX0-2 (Q9UMX0 other isoform, or with tags, fused parts or gaps): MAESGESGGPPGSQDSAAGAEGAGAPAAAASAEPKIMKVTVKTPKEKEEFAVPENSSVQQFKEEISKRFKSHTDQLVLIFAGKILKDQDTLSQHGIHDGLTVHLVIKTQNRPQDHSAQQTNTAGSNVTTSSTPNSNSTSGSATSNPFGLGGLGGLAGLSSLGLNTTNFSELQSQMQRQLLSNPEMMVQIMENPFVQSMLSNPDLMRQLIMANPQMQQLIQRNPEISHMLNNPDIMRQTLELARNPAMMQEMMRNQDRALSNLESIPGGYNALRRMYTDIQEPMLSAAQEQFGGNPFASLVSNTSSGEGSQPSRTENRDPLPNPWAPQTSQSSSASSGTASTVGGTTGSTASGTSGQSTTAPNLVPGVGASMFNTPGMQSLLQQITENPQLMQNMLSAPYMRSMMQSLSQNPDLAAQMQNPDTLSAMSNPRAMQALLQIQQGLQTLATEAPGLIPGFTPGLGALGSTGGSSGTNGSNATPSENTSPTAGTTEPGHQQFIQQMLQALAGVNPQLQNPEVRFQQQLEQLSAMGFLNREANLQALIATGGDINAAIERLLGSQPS
Chain of Aprataxin (Homo sapiens), Q7Z2E3-7 V263G (Q7Z2E3 15-356, stated change not applied): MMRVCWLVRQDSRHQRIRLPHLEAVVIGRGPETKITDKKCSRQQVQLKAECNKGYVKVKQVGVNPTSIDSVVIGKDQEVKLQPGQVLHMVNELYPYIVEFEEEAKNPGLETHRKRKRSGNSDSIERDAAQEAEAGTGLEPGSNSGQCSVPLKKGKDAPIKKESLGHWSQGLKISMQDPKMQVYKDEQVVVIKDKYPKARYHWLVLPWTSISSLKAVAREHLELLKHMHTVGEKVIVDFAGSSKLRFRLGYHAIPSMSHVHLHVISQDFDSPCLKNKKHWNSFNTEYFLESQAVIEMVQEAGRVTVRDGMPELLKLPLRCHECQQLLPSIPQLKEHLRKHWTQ
Chain of Aprataxin (Homo sapiens), Q7Z2E3-7 A198V (Q7Z2E3 15-356, stated change not applied): as above
Chain of Aprataxin (Homo sapiens), Q7Z2E3-7 H228R (Q7Z2E3 15-356, stated change not applied): as above
Chain of Transcription factor AP-2-alpha (Homo sapiens), P05549-5 R249G (P05549 other isoform, or with tags, fused parts or gaps R249G): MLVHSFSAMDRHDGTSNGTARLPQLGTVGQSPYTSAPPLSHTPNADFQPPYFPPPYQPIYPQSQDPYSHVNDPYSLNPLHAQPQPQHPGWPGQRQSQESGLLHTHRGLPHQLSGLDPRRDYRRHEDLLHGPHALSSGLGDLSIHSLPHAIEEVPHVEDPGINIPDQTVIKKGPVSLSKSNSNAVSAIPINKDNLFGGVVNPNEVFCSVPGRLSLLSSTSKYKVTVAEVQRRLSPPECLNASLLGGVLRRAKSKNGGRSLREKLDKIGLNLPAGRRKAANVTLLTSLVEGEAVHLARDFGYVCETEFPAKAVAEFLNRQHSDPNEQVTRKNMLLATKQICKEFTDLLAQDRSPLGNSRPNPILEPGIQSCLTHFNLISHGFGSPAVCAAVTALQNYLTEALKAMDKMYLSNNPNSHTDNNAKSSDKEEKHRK
Chain of Transcription factor AP-2-alpha (Homo sapiens), P05549-5 G256E (P05549 other isoform, or with tags, fused parts or gaps G256E): as the sequence (P05549 other isoform, or with tags, fused parts or gaps R249G) above
Chain of Transcription factor AP-2-alpha (Homo sapiens), P05549-5 R248W (P05549 other isoform, or with tags, fused parts or gaps R248W): as the sequence (P05549 other isoform, or with tags, fused parts or gaps R249G) above

Substance: Actin, cytoplasmic 2 (Homo sapiens) (from UniProt P63261) P264L
- effect of a mutation on the interaction (cap2_human CAP2 [2]): causing an interaction
- effect of a mutation on the interaction (cof2_human CFL2): disrupting interaction strength
- effect of a mutation on the interaction (cap2_human CAP2 [1]): with no effect

Substance: Aprataxin (Homo sapiens), Q7Z2E3-7 A198V
- effect of a mutation on the interaction (pnma1_human PNMA1): with no effect

Substance: Aprataxin (Homo sapiens), Q7Z2E3-7 H228R
- effect of a mutation on the interaction (pnma1_human PNMA1): disrupting interaction strength

Substance: Cytosolic 5'-nucleotidase 3A (Homo sapiens) (from UniProt Q9H0P0) G280R
- effect of a mutation on the interaction (UBQLN1, Q9UMX0-2): with no effect

Substance: Erythroid transcription factor (Homo sapiens), P15976-2 D218G
- effect of a mutation on the interaction (mdfi_human MDFI): with no effect
- effect of a mutation on the interaction (lzts2_human LZTS2): with no effect
- effect of a mutation on the interaction (kra32_human KRTAP3-2): with no effect
- effect of a mutation on the interaction (trip6_human TRIP6): with no effect

Substance: Erythroid transcription factor (Homo sapiens), P15976-2 G208R
- effect of a mutation on the interaction (mdfi_human MDFI): with no effect
- effect of a mutation on the interaction (lzts2_human LZTS2): with no effect
- effect of a mutation on the interaction (kra32_human KRTAP3-2): with no effect
- effect of a mutation on the interaction (trip6_human TRIP6): with no effect

Substance: Surfactant protein C (Homo sapiens) (from UniProt P11686) H64P
- effect of a mutation on the interaction (SYNE4, Q8N205-2): with no effect
- effect of a mutation on the interaction (smim3_human SMIM3 [3]): causing an interaction
- effect of a mutation on the interaction (smim3_human SMIM3 [4]): with no effect
- effect of a mutation on the interaction (tmm79_human TMEM79): with no effect

Substance: Surfactant protein C (Homo sapiens) (from UniProt P11686) P30L
- effect of a mutation on the interaction (SYNE4, Q8N205-2): with no effect
- effect of a mutation on the interaction (smim3_human SMIM3 [3]): causing an interaction
- effect of a mutation on the interaction (smim3_human SMIM3 [4]): with no effect
- effect of a mutation on the interaction (tmm79_human TMEM79): with no effect

Substance: Transcription factor AP-2-alpha (Homo sapiens), P05549-5 G256E
- effect of a mutation on the interaction (gsto2_human GSTO2): with no effect

Substance: Transcription factor AP-2-alpha (Homo sapiens), P05549-5 R249G
- effect of a mutation on the interaction (gsto2_human GSTO2): with no effect

The remaining lines, values ahead:

- effect of a mutation on the interaction (cof2_human CFL2): disrupting interaction strength
- effect of a mutation on the interaction (cap2_human CAP2 [1]): disrupting interaction strength
Substance: Actin, cytoplasmic 2 (Homo sapiens) (from UniProt P63261) I122V

- effect of a mutation on the interaction (cap2_human CAP2 [2]): causing an interaction
- effect of a mutation on the interaction (cof2_human CFL2): with no effect
- effect of a mutation on the interaction (cap2_human CAP2 [1]): with no effect
Substance: Actin, cytoplasmic 2 (Homo sapiens) (from UniProt P63261) T89I

- effect of a mutation on the interaction (pnma1_human PNMA1): disrupting interaction strength
Substance: Aprataxin (Homo sapiens), Q7Z2E3-7 V263G

- effect of a mutation on the interaction (UBQLN1, Q9UMX0-2): disrupting interaction strength
Substance: Cytosolic 5'-nucleotidase 3A (Homo sapiens) (from UniProt Q9H0P0) G207R

- effect of a mutation on the interaction (mdfi_human MDFI): with no effect
- effect of a mutation on the interaction (lzts2_human LZTS2): disrupting interaction strength
- effect of a mutation on the interaction (kra32_human KRTAP3-2): with no effect
- effect of a mutation on the interaction (trip6_human TRIP6): with no effect
Substance: Erythroid transcription factor (Homo sapiens), P15976-2 V205M

- effect of a mutation on the interaction (gsto2_human GSTO2): with no effect
Substance: Transcription factor AP-2-alpha (Homo sapiens), P05549-5 R248W
